In patent EP4786489A1, “IL-22 MUTANT, PREPARATION METHOD THEREFOR, AND USE THEREOF” (Nanjing Novoacine Biotechnology Co., Ltd., priority 2023, dated 2025):

Experiments:
Reg3β = test: Mouse PD: plasma Reg3β after single administration (ELISA); assay type: in vivo; parameters: Reg3βCmax: unit not given here; conditions: for Reg3βCmax: mouse plasma, wt IL-22 i.p.
Method: The ELISA method was used to determine the baseline levels and post-dose changes of the biomarker Reg3β in plasma samples before and after administration of different test candidates.
For the preferable test candidates, one mouse per dose group was subcutaneously injected at 0.5, 1, or 3 mg/kg. The control molecules were IL-22-Fc, administered subcutaneously at 0.3 and 1 mg/kg, and wt IL-22, administered intraperitoneally at the corresponding doses.
Approximately 40 µL of orbital blood was collected with anticoagulation on the day before dosing and at 4, 24, 48, 96, 144, 192, 264, 336, and 408 hours after dosing, followed by plasma separation. ELISA plates were coated overnight at 4°C with 1 µg/mL anti-Reg3β (Sino Biological, 51153-R065) dissolved in PBS. Mouse Reg3β (Sino Biological, 51153-M08H) was serially diluted to generate a positive control standard curve. Plasma samples were appropriately diluted to fall within the linear range of the standard curve. After blocking, samples were added and incubated for 2 hours. Incubation was then performed with the secondary antibody sheep anti-mouse Reg3β (R&D Systems, AF5110-SP) and HRP-conjugated antibody (HRP-Rabbit anti-sheep IgG H&L, Abcam, Ab97130). After final washing, tetramethylbenzidine peroxidase substrate (TMB, Surmodics, TMBS-1000-01) was added for color development for 10 minutes. The reaction was terminated with 2 M sulfuric acid, and absorbance was read at 450 nm with 630 nm as reference using a microplate reader. The original concentrations of Reg3β in each sample were calculated. Concentration versus time curves were plotted (Figure 9).

STAT3 = STAT3 phosphorylation in HaCaT cells by FACS (tissue activation preference); assay type: cell-based, Human; conditions: STAT3 activation in HT29 vs HaCaT cells
Method: Human immortalized keratinocyte HaCaT cells were recovered and cultured in MEM/EBSS medium (Cytiva, SH30024.01) supplemented with 15% FBS and 1% P/S (Cytiva, SV30010). When cell confluence reached 70%-80%, cells were digested with 0.25% Trypsin-EDTA (Gibco, 25200-056), terminated with complete medium, and resuspended to […]. After mixed thoroughly, a total of 120 µL per well cells was seeded into a 96-well plate (Corning, 3599) at a density of 1.5 × 10^5 cells per well and incubated overnight at 37°C with 5% CO2.
wt IL-22 was prepared at an initial working concentration of 1000 nM, and the remaining samples were prepared at 10000 nM as the starting concentration. […] After staining at room temperature in the dark for 1 hour, cells were washed twice with 1× PBS and analyzed by flow cytometry to determine the mean fluorescence intensity (MFI).
Tissue activation preference of different test candidates was evaluated by comparing their ability to activate STAT3 in intestinal-derived HT29 cells and skin-derived HaCaT cells. […] The activity of PEGylated IL-22 mutants in activating STAT3 phosphorylation in HaCaT cells at different concentrations as determined by FACS is shown in Figure 8. […] Tissue preference of PEG-IL22 mutants for STAT3 phosphorylation in human intestinal and human skin cell lines determined by FACS

[1] = Mouse PK, plasma concentration by ELISA; assay type: in vivo; conditions: single s.c. 1 mg/kg, male Balb/C mice
Method: Male Balb/C mice (n = 4 per group) were administered a single subcutaneous injection at a dose of 1 mg/kg. Blood samples were collected before dosing and at 4 (no samples were collected at this time point for 60k-PEG-IL22-D109C and 60k-PEG-IL22-P120C), 8, 24, […], 48, 72, 96, and 120 hours after dosing. Anticoagulated blood was used to prepare plasma.
The concentrations of each test candidate in plasma were quantified by ELISA. Anti-IL22 Antibody (Sino Biological, 13059-MM24), diluted in PBS to 2 µg/mL, was used for coating. Standard curves of each test candidate and plasma samples were diluted to fall within the linear range of detection. Recombinant Anti-IL22 Antibody (Sino Biological, 13059-R034-H) was used for detection. The original concentration of each test candidate in the samples was calculated using a four-parameter fit of the standard curve for each test candidate. Pharmacokinetic parameters of each test candidate in mouse plasma were analyzed (Figure 12). Table 13. Dosing information for the mouse PK study

SAA = test: Mouse PD preference study: plasma SAA; assay type: in vivo, mice; conditions: at equivalent or superior Reg3β Cmax: 60K-PEG-IL22-D109C 0.1 mg/kg vs 60K-PEG-IL22-P120C 0.3 mg/kg vs IL-22-Fc 1 mg/kg, s.c.
Method: Based on the in vitro preference results and preliminary PD screening results, the molecules 60k-PEG-IL22-D109C and 60k-PEG-IL22-P120C were selected. PD testing was performed in three mice per dose group at different dose levels according to the method described in Example 14, including the pharmacodynamic-related molecule Reg3β and the inflammation-related molecule SAA. The control was IL-22-Fc. Blood samples were collected before dosing and at 4, 24, 48, 72, 96, 144, 192, 264, and 336 hours after dosing. Plasma was separated using anticoagulated blood samples. For the control molecules wt IL-22 and hB3-his, samples were collected only up to 96 hours.
The detection method for SAA was as follows: a kit containing detecting antibody pairs and positive controls (Abcam, Ab216059) was used to detect SAA concentrations in appropriately diluted plasma samples. The assay was performed according to the manufacturer's instructions. Sa-HRP (Pierce 21126) was used for conjugation. After washing, tetramethylbenzidine peroxidase substrate (TMB, Surmodics, TMBS-1000-01) was added for color development for 10 minutes. The reaction was terminated with 2 M sulfuric acid, and the plate was read at 450 nm with 630 nm as the reference using a microplate reader. SAA was measured before dosing and at 24, 48, 72, 96, and 144 hours after dosing. The original SAA concentration in each sample was calculated. […]

B1: 60K-PEG-IL22-D109C: IL-22 cysteine mutant, conjugation site 76, PEG-maleimide 60kD (conjugate)
chain: APISSHCRLDKSNFQQPYITNRTFMLAKEASLADNNTDVRLIGEKLFHGVSMSERCYLMKQVLNFTLEEVLFPQSCRFQPYMQEVVPFLARLSNRLSTCHIEGDDLHIQRNVQKLKDTVKKLGESGEIKAIGELDLLFMSLRNACI
In the case of B1, the “Normalized Cmax ratio of Reg3β (relative to IL-22-Fc)” value (Reg3β; 0.5mg/kg single dose vs IL-22-Fc 0.3 mg/kg) is reported as 329%, the Reg3βCmax (Reg3β; 0.5mg/kg single dose, test candidates s.c., one mouse per dose group) is reported as 52.0 and the “Normalized Cmax ratio of Reg3β (relative to IL-22-Fc)” value (Reg3β; 1mg/kg single dose) is reported as 251%. For the same molecule, the Reg3βCmax (Reg3β; 1mg/kg single dose, s.c.) was 82.9, the Reg3βCmax (Reg3β; 3mg/kg single dose, s.c.) was 73.4 and the “peak concentrations of Reg3β stimulation compared with IL-22-Fc” value (Reg3β; similar (0.5 mg/kg vs. 0.3 mg/kg) or identical (1 mg/kg) doses) was “higher peak concentrations”. For the same molecule, the “tissue preference compared with IL-22-Fc” value (STAT3) was “superior tissue preference”, the “AUClast” value [1] was 301.5835 µg·h/mL and the “Cmax” value [1] was 5460.625 ng/mL. For the same molecule, the “MRT” value [1] was 41.39 h, the “T1/2” value [1] was 21.6 h and the “SAA Cmax compared with IL-22-Fc” value (SAA) was “significantly lower”.
